Measurements reported in article PMC12751052.

Target: AcrIII-2 (second anti-CRISPR of type III systems), viral SAVED protein of Thermocrinis Great Boiling Spring virus (Thermocrinis Great Boiling Spring virus)
Assay: crystal structure; apo AcrIII-2, X-ray, data to 1.79 Å; crystals from 1.2 M sodium dihydrogen phosphate, 0.8 M dipotassium hydrogen phosphate, 0.2 M lithium sulphate, 0.1 M CAPS pH 10, 293 K

For “AcrIII-2 (second anti-CRISPR of type III systems), viral SAVED protein of Thermocrinis Great Boiling Spring virus (natural protein)”, the stoichiometry N was 2.
